Results published in IntAct's records for PubMed 25728924.

B1: Leucine-rich repeat transmembrane protein FLRT2 (Mus musculus), Q8BLU0 (parent)
chain: MGLQTTKWPGRGAFILKFWLIISLGLYLQVSKLLACPSVCRCDRNFVYCNERSLTSVPLGIPEGVTVLYLHNNQINNAGFPAELHNVQSVHTVYLYGNQLDEFPMNLPKNVRVLHLQENNIQTISRAALAQLLKLEELHLDDNSISTVGVEDGAFREAISLKLLFLSKNHLSSVPVGLPVDLQELRVDENRIAVISDMAFQNLTSLERLIVDGNLLTNKGIAEGTFSHLTKLKEFSIVRNSLSHPPPDLPGTHLIRLYLQDNQINHIPLTAFANLRKLERLDISNNQLRMLTQGVFDHLSNLKQLTARNNPWFCDCSIKWVTEWLKYIPSSLNVRGFMCQGPEQVRGMAVRELNMNLLSCPTTTPGLPVFTPAPSTVSPTTQSPTLSVPSPSRGSVPPAPTPSKLPTIPDWDGRERVTPPISERIQLSIHFVNDTSIQVSWLSLFTVMAYKLTWVKMGHSLVGGIVQERIVSGEKQHLSLVNLEPRSTYRICLVPLDAFNYRTVEDTICSEATTHASYLNNGSNTASSHEQTTSHSMGSPFLLAGLIGGAVIFVLVVLLSVFCWHMHKKGRYTSQKWKYNRGRRKDDYCEAGTKKDNSILEMTETSFQIVSLNNDQLLKGDFRLQPIYTPNGGINYTDCHIPNNMRYCNSSVPDLEHCHT
B2: Adhesion G protein-coupled receptor L3 (Mus musculus), Q80TS3 (parent)
chain: MWPPQLLILTMLLAPVVHGGKHNERHPALAAPLRHAERSPGGALPPRHLLQQPAAERSTAHRGQGPRGAARGVRGPGAPGAQIAAQAFSRAPIPMAVVRRELSCESYPIELRCPGTDVIMIESANYGRTDDKICDSDPAQMENIRCYLPDAYKIMSQRCNNRTQCAVVAGPDVFPDPCPGTYKYLEVQYECVPYKVEQKVFLCPGLLKGVYQSEHLFESDHQSGAWCKDPLQASDKIYYMPWTPYRTDTLTEYSSKDDFIAGRPTTTYKLPHRVDGTGFVVYDGALFFNKERTRNIVKFDLRTRIKSGEAIIANANYHDTSPYRWGGKSDIDLAVDENGLWVIYATEQNNGKIVISQLNPYTLRIEGTWDTAYDKRSASNAFMICGILYVVKSVYEDDDNEATGNKIDYIYNTDQSKDSLVDVPFPNSYQYIAAVDYNPRDNLLYVWNNYHVVKYSLDFGPLDSRSGPVHHGQVSYISPPIHLDSELERPPVRGISTTGSLGMGSTTTSTTLRTTTWNIGRSTTASLPGRRNRSTSTPSPAVEVLDDVTTHLPSAASQIPAMEESCEAVEAREIMWFKTRQGQVAKQPCPAGTIGVSTYLCLAPDGIWDPQGPDLSNCSSPWVNHITQKLKSGETAANIARELAEQTRNHLNAGDITYSVRAMDQLVGLLDVQLRNLTPGGKDSAARSLNKLQKRERSCRAYVQAMVETVNNLLQPQALNAWRDLTTSDQLRAATMLLDTVEESAFVLADNLLKTDIVRENTDNIQLEVARLSTEGNLEDLKFPENMGHGSTIQLSANTLKQNGRNGEIRVAFVLYNNLGPYLSTENASMKLGTEAMSTNHSVIVNSPVITAAINKEFSNKVYLADPVVFTVKHIKQSEENFNPNCSFWSYSKRTMTGYWSTQGCRLLTTNKTHTTCSCNHLTNFAVLMAHVEVKHSDAVHDLLLDVITWVGILLSLVCLLICIFTFCFFRGLQSDRNTIHKNLCISLFVAELLFLIGINRTDQPIACAVFAALLHFFFLAAFTWMFLEGVQLYIMLVEVFESEHSRRKYFYLVGYGMPALIVAVSAAVDYRSYGTDKVCWLRLDTYFIWSFIGPATLIIMLNVIFLGIALYKMFHHTAILKPESGCLDNINYEDNRPFIKSWVIGAIALLCLLGLTWAFGLMYINESTVIMAYLFTIFNSLQGMFIFIFHCVLQKKVRKEYGKCLRTHCCSGKSTESSIGSGKTSGSRTPGRYSTGSQSRIRRMWNDTVRKQSESSFITGDINSSASLNREGLLNNARDTSVMDTLPLNGNHGNSYSIAGGEYLSNCVQIIDRGYNHNETALEKKILKELTSNYIPSYLNNHERSSEQNRNMMNKLVNNLGSGSEDDAIVLDDAASFNHEESLGLELIHEESDAPLLPPRVYSTDNHQPHHYSRRRFPQDHSESFFPLLTDEHTEDLQSPHRDSLYTSMPALAGVPAADSVTTSTQTEAAAAKGGDAEDVYYKSMPNLGSRNHVHPLHAYYQLGRGSSDGFIVPPNKDGASPEGTSKGPAHLVTSL
partner: B1 chain

Variants of: B1
Conditions: with agrl3_mouse Adgrl3, Q80TS3
For R186N;D188T, the “effect of a mutation on the interaction” value was “disrupting interaction strength”.

Variants of: B2
Conditions: with flrt2_mouse Flrt2, Q8BLU0
R292N;R294T was tested, and the “effect of a mutation on the interaction” value was “disrupting interaction strength”.
With T267N;K269T the “effect of a mutation on the interaction” value was “decreasing interaction strength”.
R324N;G326T was tested, and the “effect of a mutation on the interaction” value was “disrupting interaction strength”.
In the case of P244N;R246T, the “effect of a mutation on the interaction” value is reported as “decreasing interaction strength”.
